Experimental data as given in publication PMC4884477.

Experiments:
E. coli Hfq = E. coli Hfq (Escherichia coli, UniProt P0A6X3 1-102); assay: fluorescence anisotropy
S. aureus Hfq = S. aureus Hfq (Staphylococcus aureus, UniProt A0A0H3JV59 1-77); assay: fluorescence anisotropy

Question: What does the source list for GUGGUCAGUCGAGUGGCUUCCGUCCAUUUCGGACGUUUUUU (structured_RNA) [Cy3-mini-sRNA]?
Answer: Kd (E. coli Hfq): 2.7 ± 0.8 nM; Kd (S. aureus Hfq): 100 nM
